Experimental data taken from the nanobody polyreactivity screen of Harvey et al. (2022).

Assay: yeast display, Sf9 membrane polyspecificity reagent, FACS + sequencing; frameworks hold sequencing errors
Summary of the method: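 Galactose induction of a Saccharomyces cerevisiae BJ5465 synthetic nanobody display library ran 36–48 hours. The cells were then stained for 1 hour at 4 °C with 10% biotinylated, detergent-solubilized Sf9 membrane reagent, pulled down on streptavidin microbeads and FACS-sorted into low and high (top ~1%) gates on expression and reagent-binding fluorescence. Labels for polyreactivity follow the gate of origin.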

Row | Sequence | polyreactivity (PSR sort gate)
1 | QVQLVESGGGLVQAGGSLRLSCAASGRILGKNTMGWYRQAPGKEREFVAAISASGGRTYYADSVKGRFTISRDNAKYTVYLQMNSLKPEDTAVYYCAAARSRYSYATGFDYWGQGTQVTVSS | high polyreactivity
2 | QVQLVESGGGLVQAGGSLRLSCAASGRTFYGYAMGWYRQAPGKERELVAAISSNNGRTYYADSVKGRFTISRDNAKNTVYLQMNSLKPEDTAVYYCAAEAVSILWRDYDYWGQGTQVTVSS | low polyreactivity
3 | QVQLVESGGGLVQAGGSLRLSCAASGRIFYVYSMGWYRQAPGKDRELVADISRGGSTNYADSVKGRFTISRDNAKNTVYLQMNSLKPEDTAVYYCNTDGLWSAEYDYWGQGTQVTVSS | low polyreactivity
4 | QVQLVESGGGLVQAGGSLRLSCAASGRTFFKYAMGWYRQAPGKERELVATITSSGGITYADSVKGRFTISRDNAKNTVYLQMNSLKPEDTAVYYCNARVWVTHYSELNYWGQGTQLTVSS | low polyreactivity
5 | QVQLEESGGGLVQAGGSLRLSCAASGRILVKNTMGWYRQAPGKERELVAAITSGGNTYYADSVKGRFTISRDNAKNTVYLQMNSLKPEDTAVYYCNKVSNRSGYYWGQGTQVTVSS | high polyreactivity
6 | QVQLVESGGGLVQAGGSLRFSCAASGFIFVRYAMGWYRQAPGKERELVAAISGSGGRTYYADSVKGRFTISRDNAKNTVYLQMTSLKPEDTAVYYCNGTSYTYGYLPYDYWGQGTQVTVSS | high polyreactivity
7 | QVQLVESGGGLVQAGGRLRLSCAAYGRIFDYYAMGWYRPAPGKEREFVAGITSTGGSTYYADSVKGRFTISRDNAMNTVYFQMNSLKPEDTPVYYCNVVKRLRHGYDYWGQGNQVTVSS | high polyreactivity
8 | QVQLVESGGGLVQAGGSLRLSCAASGSTFVRNAMGWYRQAPGKERELVAAISNVGSTYYADSVKGRFTISRDNAKNTVYLQMNSLKPEDTAVYYGTKQLWYHKFNYWGQGTQVTVSS | low polyreactivity
9 | QVQLVESGGGLVQAGGSLSLSCAASGSIIARYAMGWYRQAPGKERELVAAITWSATSTYYADSVKGRFTISRDNAKNTVYLQMTSLKPEDTAVYYCNAGASYFLVISQSRRDYWGQGTQVTVSS | low polyreactivity
10 | QVQLVESGGGLVQAGGSLRLSCAASGRTFPGNAMGWYRQAPGKERELVAAISKSSSRTYYADSVKGRFTISRDNAKNTVYLQMNSLKPEDTAVYYCAASSFNNGHRYDYWGQGTQVTVSS | high polyreactivity
11 | QVQLVESGGGLVQAGGSLRLSCAASGSTFYIYAMGWYRQAPGKERELVATITRAGTTNYADSVKGRFTISRDNAMNTVYLQMNSLKPEETAVYYCAKRKFRWPYQGSYSYIPFGYCGQGTQVTVSS | high polyreactivity
12 | QVQLVESGGGLVQAGGSLRISCAASGITFTGYAMGWYRQAPGKEKELVAAIRGGGNTYYADSVKGRFTISRDNAKNTVYLQMNSLKPEDTAVYYCATSYASYTYWYDYWGQGTQVTVSS | low polyreactivity
13 | QVQLVESGGGLVQAGGSLRLSCAASGIIFYGYAMGWYRQAPGKERELVAAISRSGGSTYYADSVKGRFTISRDNAKNTVYLQMNSLKPEDTAVYYCAAVRIRPLRYYYWGQGTQVTVSS | high polyreactivity
14 | QVQLVESGGGLVQEGGSLRLSCAASGSIYGWDAMGWYRQAPGQEREYVAAIDYSDGGRTYSADSVKGRFTISRDPAKNTVYLQMNSLKPADTAVYYCAAGYVYPHYFIDEYWGQGTQVTVSS | high polyreactivity
15 | QVQIVESGGGLVQAGGSLRLSCAASGSIFSRYAMGWYRQAPGKERELVAAISGRGGGTYYADSVKGRFTISRDNAKNTVYLQMNSLKPEDTAVYYCAAQLGRPAYSRVSWRAYYYWGQGTQVTVSS | low polyreactivity
16 | QVQLEDSGGGLVQAGGSLRLSCAASGSTFLYYARGWYRQAPGKERELVAAITSGGSTYYADSVKGRFTISRDNAKNTVYLQMNSLKPEDTAVYYCAAASRRGYYYWGQGTQVTVSS | high polyreactivity
17 | QVQLVESGGGLVQARGSLRLSCAASGFGWYAMGWYRQAPGKEREFVAAISRGGGSTYYADSVKGRFTISRDNAKNTVYLQMNSLKQEDTAVYYCAAVYYRRISQGDTQTYYQYNYWGQGTKVTVSS | high polyreactivity
18 | QVQLVESGGGLVQAGGSLRLSCAASGRTFRSNAMGWYRQAPGKEREFVAAISGRGGITYYADSVKGRFTISRDNAKNTVYLQMNSLKPEDTAVYYCNADYWQAGDYLYYFVYYGGYDYWGQGTQVTVSS | low polyreactivity
19 | QVQLVESGGGLVQAGGRLRISSAASGFIFYVNAKGWYRQAPGKERELVAAISWSGGSTYYADSVKGRFTISRDNAKNTVYLQMNSLKPEDPAFYYCAAGASPYEGYDNWGQGTQVTVSS | low polyreactivity
20 | QVQLVESGGGLVQAGGSLRLSCAASGSIFRGNAMGWYRQAPGKEMELVAAINKSGGSTYYADSVKGRFTISRDNAKNTVYLQMNSLKPEDTAVYYCAAVYKRLQPYGYWGQGTQVTVSS | high polyreactivity
21 | QVQLQESGGGLVQAGGILRLSCAASGSIFHLHIMCWYRQEPGKERESVAAISNGTSTYYADSVKGRFTICRDNAKNTVYLQMNSPKPDDTAVYYCAALFLVSKHHHYWGEGTQVTVSS | low polyreactivity
22 | QVQLVESGGGLVQAGGSLRLSCAASGRILGRYAMGWYRQAPGKERELVAAITSGGNTTYADSVKGRFTISRDNAKNTVYLQMNSLKPEDTAVYYCAAYSYTQLNLMDYWGQGSQVTVSS | low polyreactivity

Row | Sequence | polyreactivity (PSR sort gate)
23 | QVQLVESGGGLVQAGGSLRLSCAASGRTFKAYAMGWYRQAPGKEREFVAAITKRGGSTYYADSVKGRFTISRDNAKNTVYLQMNSLKPEDTAVYYCAVGLGRYTHTSVPIPSYDYWGQGTQVTVSS | high polyreactivity
24 | QVQLVESGGGVVQAGGSLRLSCAASGITFSYYTMGWSRQAPGKERELVAAINWTGGDTYYADSVKGRFTISRDNAKNTVYLQMNSLNPEDTAVYYCNADYPYFYRFTAEYDYWGQGPQVTVSS | low polyreactivity
25 | QVQLVESGGGLVQAGGSLRLSCAASGRSFDRYAMGWYRQAPGKERELVAGITASGGSTYYADSVKGRFTISRDNAKNTVYLQMNSLKPEDTAVYYCAVVYGYRYYYWGQGTQVTVSS | high polyreactivity
26 | QVQLVESGARLVQAGGSLRLRCAPSGSIFDGYAMGWYRQAPGKEREFVAAISKGGTRTYYADSVKGRFTISRDNAKNTVYLQMNSLIPEDSAVFYCNAYYRREPDDGDYDYWGQGTQVTVSS | high polyreactivity
27 | QVQLVESGGCLVQAGGSLRLSCAASGRTFFNYGMGWYRQAPGKEREFVARISFSGGSTYYADSVKGRFTISRDNAKNTVFLQMNSLIPEDTAVYYCNARVFPVAYRYGYWGQGTQVTVSS | high polyreactivity
28 | QVQLVESRGGVVQAGGSLRLSSAASGTFVYAMGWYRQAPGKERELVAAISYSGGSTYYADSVKGRFTISRDNAKNTVYLQMNSLKPEDTAVYYCAARTTLSYGYDYWGQGTQVTVSS | high polyreactivity
29 | QVQLVESGGGLVQAGGSLRLSCAATGLIIPFSAMGWDREPPGKDRDLVAAISWSAGSTYYADSVKGRFTISRDNAKNSVYLHMNSLKPEDTAVYYCATDRNPADFYWGQGTQVTVSS | low polyreactivity
30 | QVQLVESGGGLVQAGGSLRLSCAASGSTFRYYAMGWYRQAPGKERELVATITGSGGSTYYADSVKGRFTISRDNAKNTVYLQMNSLKPEDTAVYYCAAYYSGGYDYWGQGTQVTVSS | high polyreactivity
31 | QVQLVESGGGLVQAGGRLRLSSAASGRTFYPNAMGWYRKAPLKERELVAAISGSGGSTYYADSVKGRFTISRDNAKNTVYLQMNSLKPEDTAVYYCAAYPEYLVGYRYGSWGQGTQVTVSS | high polyreactivity
32 | QVQLVESGGGLVQAGGSLRLSCAGSGFTFIRYAMGWYRQAPGKERELVATITRRTGSTYYADSVKGRFTISRDNAKNTVYLQMYSLKPEDTAVYDCAGELYPSWSHTVFHGYNYWGQGTQVTVSS | high polyreactivity
33 | QVQLVESGGGLVQAGGSLRLSCAASGSTFRGYAMGWYRQAPGKERELVAAITSSGGSTYYADSVKGRFTISRDNAKNTVYLQMNSLKPEDTAVYYCAAEGGYWYTITYSYWLDYWGQGTQVTVSS | low polyreactivity
34 | QVQLVESGGGLVQAGGSLRLSCAASGSIFGYYTMGWYRQAPGKERELVAAISQGGARTYYADSVKGRFTISRDNAKNTVYLQMNSLKPEDTAVYYCNAVSPAGYWFDYWGQGTQVTVSS | high polyreactivity
35 | QVQLVESGGGLVQAGGSLRLSCAASGSIFPQYAMGWYRQAPGKERELVAAISWSGGRTYYADSVKGRFTISRDNAKNTVYIQMNSLKPEDTAVYYCNRLYRRWYGREDDYWGQGTQVTVSS | high polyreactivity
36 | QVQLVESGGGLVQAGGSLRLSCAASGFTFAHNAMGWYRQAPGKERELLAAISSRGGRTFYADSVKGRFTISRDNAKNTVYLQMNSLKPEDTAVYYCNRVRSVTPSPRYYYWGQGTQVTVSS | high polyreactivity
37 | QVQLVESGGGLVQAGCSLRLSCAASGLTFAKYAMGWYRHAPGKEWELVAAISRSGGSTYYADSVKGRFTISRDNAKNTVYLQMNSLKPEDTAVYYCAKSSGTLWITKYDYWGQGTQVTVSS | low polyreactivity
38 | QVQLVESGGGLVQAGGSLRLSCAASGRIFSSNAMGWYRKAPGKEREFVAAINESGGITFYADSVKGRFTISRDNAKNTVYLQLNSLIPEDTAVYYCAKRDYSPWPADGYPYDYDYWGQGTQVTVSS | low polyreactivity
39 | QVQLVESGGGLVQAGGSLRLSWAASGSIFGNAMGWYRQAPGKEREFVAAISSSGSSTYYADSVKGRFTISRDNAKNTVYLQMNSLKPEDTAVYYCAKRRRSAAPKYDYWGQGTHVTVSS | high polyreactivity
40 | QVQLQESGGGLVQAGGSLRLSCAASGYISSWYPMGWYRQAPGKEREFVATIAPGATPYYADSVKGRFTISRDYAKNTVYLQMNSLKPEDTAVYYCAAGPENNDFYSYWGQGTQVTVSS | low polyreactivity
41 | QVQLVESGGGLVQAGGSLRLSCAASGRTFPLNAMGWYRQAPGKERELVAAITWSGGRTYYADSVKGRFTISRDNAKNTVYLQMNSLKPEDTAVYYCNVDKVTSWYYYGYWGQGTQVTVSS | low polyreactivity
42 | QVQLVESGGGLVQAGGSLRLSCAASGRTFRTYTMGWYRQAPGKEREFVAAITSSGASTYYADSVKGRFTISRDNAKNTVYLQKNSLKPEDTAFYYCAARYGRRLVWVPALLYDYWGQGTQVTVSS | high polyreactivity
43 | QVQLVESGGGLVQAGGSLRLSCAASGSTFKKYVMGWYRQAPGKERELVAAISGRGGSTYYADSVKGRFTISRDNAKNTVYLQMNSLKPEDTAVYYCNARKQTARFDSWGQGTQVTVSS | high polyreactivity
